Measurements taken from patent publication US20060115839A1 (published 2006).

Target: endogenous histone H3 in U2OS cells (human, UniProt P68431 2-136)
Assay: formaldehyde crosslinking in irradiated U2OS cells, nickel bead capture, H3 immunoblot (FIG. 3g)
Procedure: Non-transfected U2OS osteosarcoma cells and transfected U2OS cells expressing His-tagged GFP-53BP1 fusion proteins with wild-type or mutant (Asp1521Arg) 53BP1 sequences were pre-extracted with Triton-X100 in situ 15 min after irradiation and then treated with formaldehyde to crosslink interacting proteins. His-tagged GFP-53BP1 was then affinity-purified on nickel-coated beads and bound histone H3 was detected by immunoblotting after the crosslinks were reversed by boiling. Histone H3 was captured on beads incubated with extracts from His-tagged GFP-wild-type 53BP1 expressing cells treated with formaldehyde, but not on beads incubated with extracts from cells that were mock-crosslinked or that were expressing the Asp1521Arg mutant protein (FIG. 3g). Further, the crosslinking was specific for histone H3, because histone H2A, although present in the Triton-X100 insoluble material, was not captured by the beads (data not shown).
Proteins were crosslinked with formaldehyde³⁰. Parental U2OS cells and U2OS cells expressing N-terminally His-tagged GFP-53BP1 fusion proteins containing residues 1220-1711 of 53BP1 were exposed to 9 Gy IR. […] Histone H3 was detected by immunoblotting after the crosslinks were reversed by boiling.

binding result: no binding
B1: N-terminally His-tagged GFP-53BP1 fusion protein containing residues 1220-1711 of 53BP1 with Asp1521Arg (other)
chain: QGEEEFDMPQPPHGHVLHRHMRTIREVRTLVTRVITDVYYVDGTEVERKVTEETEEPIVECQECETEVSPSQTGGSSGDLGDISSFSSKASSLHRTSSGTSLSAMHSSGSSGKGAGPLRGKTSGTEPADFALPSSRGGPGKLSPRKGVSQTGTPVCEEDGDAGLGIRQGGKAPVTPRGRGRRGRPPSRTTGTRETAVPGPLGIEDISPNLSPDDKSFSRVVPRVPDSTRRTDVGAGALRRSDSPEIPFQAAAGPSDGLDASSPGNSFVGLRVVAKWSSNGYFYSGKITRDVGAGKYKLLFDRGYECDVLGKDILLCDPIPLDTEVTALSEDEYFSAGVVKGHRKESGELYYSIEKEGQRKWYKRMAVILSLEQGNRLREQYGLGPYEAVTPLTKAADISLDNLVEGKRKRRSNVSSPATPTASSSSSTTPTRKITESPRASMGVLSGKRKLITSEEERSPAKRGRKSATVKPGAVGAGEFVSPCESGDNTGE
notes: Expressed in U2OS cells; crosslinked in situ with formaldehyde; also called His-tagged GFP-53BP1 D1521R; Asp1521Arg mutant protein; not shown: N-terminal His tag and GFP, with any linkers
